This assay deals with PHF-tau (paired helical filament tau; sarcosyl insoluble prep from human AD brain) (human) (UniProt P10636). As to the kind of experiment: SPR (ProteOn), mAb on PHF-tau, bivalent analyte fit; apparent affinity (avidity).

Kd data for one substance are collected here from patent US20240150451A1.

Sequence of PHF-tau (paired helical filament tau; sarcosyl insoluble prep from human AD brain) (human) (P10636 other isoform, or with tags, fused parts or gaps limits assumed): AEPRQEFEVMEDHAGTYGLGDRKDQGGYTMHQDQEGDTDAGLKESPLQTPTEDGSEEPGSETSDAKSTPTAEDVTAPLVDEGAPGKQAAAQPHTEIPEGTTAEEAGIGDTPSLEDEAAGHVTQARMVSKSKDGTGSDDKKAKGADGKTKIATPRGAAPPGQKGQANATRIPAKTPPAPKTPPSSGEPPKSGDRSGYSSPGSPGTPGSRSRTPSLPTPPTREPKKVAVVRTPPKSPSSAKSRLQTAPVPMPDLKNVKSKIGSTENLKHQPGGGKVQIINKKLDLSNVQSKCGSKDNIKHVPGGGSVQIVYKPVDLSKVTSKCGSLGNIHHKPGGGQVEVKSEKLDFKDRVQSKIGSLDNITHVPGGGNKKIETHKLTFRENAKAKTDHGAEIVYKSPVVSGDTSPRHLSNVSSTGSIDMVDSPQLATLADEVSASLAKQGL

Consider HT7 (reference mAb) (antibody), for which the Kd was determined as 0.291 nM.
